Test results published in publication PMC5289644.

Key:
[1] = target: HA-tagged intracellular part of Smβ-Int1 (Smβ-Int1 C-term) (S. mansoni)
[2] = target: HA-tagged intracellular part of Smβ-Int1 (Smβ-Int1 C-term) (S. mansoni); remark: listed apart in the source

**Q.** “V5-tagged SmVKR1 (wildtype venus kinase receptor 1 of S. mansoni)” was tested. Which GVBD (%) of Xenopus oocytes without L-Arg; Smβ-Int1, SmILK, SmPINCH, SmNck2 and SmVKR1 co-expressed (Exp 1) [1] did it give?
**A.** The GVBD (%) of Xenopus oocytes without L-Arg; Smβ-Int1, SmILK, SmPINCH, SmNck2 and SmVKR1 co-expressed (Exp 1) was 90%.

**Q.** What about the GVBD (%) without L-Arg; as Exp 1 with SmILKΔAnk1 in place of SmILK (Exp 2) [1] of the same substance?
**A.** The GVBD (%) without L-Arg; as Exp 1 with SmILKΔAnk1 in place of SmILK (Exp 2) was 0%.

**Q.** What about the GVBD (%) without L-Arg; as Exp 1 with SmNck2ΔSH3 in place of SmNck2 (Exp 5) [1] of the same substance?
**A.** The GVBD (%) without L-Arg; as Exp 1 with SmNck2ΔSH3 in place of SmNck2 (Exp 5) was 10%.

**Q.** And the GVBD (%) without L-Arg; as Exp 1 with SmPINCHΔLIM1 in place of SmPINCH (Exp 4) [1]?
**A.** Its GVBD (%) without L-Arg; as Exp 1 with SmPINCHΔLIM1 in place of SmPINCH (Exp 4) is 0%.

**Q.** And the GVBD (%) without L-Arg; as Exp 1 with SmPINCHΔLIM4 in place of SmPINCH (Exp 3) [1]?
**A.** The GVBD (%) without L-Arg; as Exp 1 with SmPINCHΔLIM4 in place of SmPINCH (Exp 3) was 0%.

**Q.** What about the GVBD (%) without L-Arg; as Exp 1 with the ILK inhibitor QLT-0267 (1 μM) (Exp 7) [1] of the same substance?
**A.** Its GVBD (%) without L-Arg; as Exp 1 with the ILK inhibitor QLT-0267 (1 μM) (Exp 7) is 0%.

**Q.** What about the GVBD (%) of Xenopus oocytes without L-Arg; Smβ-Int1, SmILK and SmVKR1 co-expressed, no SmPINCH (Inj 10) [2] of the same substance?
**A.** Its GVBD (%) of Xenopus oocytes without L-Arg; Smβ-Int1, SmILK and SmVKR1 co-expressed, no SmPINCH (Inj 10) is 0%.

**Q.** And the GVBD (%) of Xenopus oocytes without L-Arg; Smβ-Int1, SmILK, SmPINCH and SmVKR1 co-expressed (Inj 11) [2]?
**A.** The GVBD (%) of Xenopus oocytes without L-Arg; Smβ-Int1, SmILK, SmPINCH and SmVKR1 co-expressed (Inj 11) was 80%.

**Q.** What about the GVBD (%) of Xenopus oocytes without L-Arg; Smβ-Int1, SmILK, SmPINCH, SmNck2 and SmVKR1 co-expressed, with the ILK inhibitor QLT-0267 (1 μM) (Inj 13) [2] of the same substance?
**A.** Its GVBD (%) of Xenopus oocytes without L-Arg; Smβ-Int1, SmILK, SmPINCH, SmNck2 and SmVKR1 co-expressed, with the ILK inhibitor QLT-0267 (1 μM) (Inj 13) is 0%.

**Q.** And the GVBD (%) of Xenopus oocytes without L-Arg; Smβ-Int1, SmILK, SmPINCH, SmNck2ΔSH3 and SmVKR1 co-expressed (Inj 15) [2]?
**A.** Its GVBD (%) of Xenopus oocytes without L-Arg; Smβ-Int1, SmILK, SmPINCH, SmNck2ΔSH3 and SmVKR1 co-expressed (Inj 15) is 10%.

**Q.** And the GVBD (%) of Xenopus oocytes without L-Arg; Smβ-Int1, SmILK, SmPINCHΔLIM4 in place of SmPINCH and SmVKR1 co-expressed (Inj 14) [2]?
**A.** The GVBD (%) of Xenopus oocytes without L-Arg; Smβ-Int1, SmILK, SmPINCHΔLIM4 in place of SmPINCH and SmVKR1 co-expressed (Inj 14) was 0%.

**Q.** What about the GVBD (%) of Xenopus oocytes without L-Arg; Smβ-Int1, SmILKΔAnk1 in place of SmILK, SmPINCH and SmVKR1 co-expressed (Inj 12) [2] of the same substance?
**A.** Its GVBD (%) of Xenopus oocytes without L-Arg; Smβ-Int1, SmILKΔAnk1 in place of SmILK, SmPINCH and SmVKR1 co-expressed (Inj 12) is 0%.

**Q.** What about the GVBD (%) of Xenopus oocytes without L-Arg; Smβ-Int1, SmPINCH and SmVKR1 co-expressed, no SmILK (Inj 9) [2] of the same substance?
**A.** Its GVBD (%) of Xenopus oocytes without L-Arg; Smβ-Int1, SmPINCH and SmVKR1 co-expressed, no SmILK (Inj 9) is 0%.
